From PMC12711061, “Far-infrared irradiation attenuates vessel contraction by activating SERCA2 through disruption of SERCA2 and PLN interaction” (PLOS One, 2025)

Target: sarcoendoplasmic reticulum Ca2+-ATPase 2 (SERCA2), endogenous in rat VSMCs (rat (endogenous in rat aortic VSMCs), UniProt P11507 1-1043)
Test: cell-based or functional assay

Sequence of sarcoendoplasmic reticulum Ca2+-ATPase 2 (SERCA2), endogenous in rat VSMCs (P11507 whole entry): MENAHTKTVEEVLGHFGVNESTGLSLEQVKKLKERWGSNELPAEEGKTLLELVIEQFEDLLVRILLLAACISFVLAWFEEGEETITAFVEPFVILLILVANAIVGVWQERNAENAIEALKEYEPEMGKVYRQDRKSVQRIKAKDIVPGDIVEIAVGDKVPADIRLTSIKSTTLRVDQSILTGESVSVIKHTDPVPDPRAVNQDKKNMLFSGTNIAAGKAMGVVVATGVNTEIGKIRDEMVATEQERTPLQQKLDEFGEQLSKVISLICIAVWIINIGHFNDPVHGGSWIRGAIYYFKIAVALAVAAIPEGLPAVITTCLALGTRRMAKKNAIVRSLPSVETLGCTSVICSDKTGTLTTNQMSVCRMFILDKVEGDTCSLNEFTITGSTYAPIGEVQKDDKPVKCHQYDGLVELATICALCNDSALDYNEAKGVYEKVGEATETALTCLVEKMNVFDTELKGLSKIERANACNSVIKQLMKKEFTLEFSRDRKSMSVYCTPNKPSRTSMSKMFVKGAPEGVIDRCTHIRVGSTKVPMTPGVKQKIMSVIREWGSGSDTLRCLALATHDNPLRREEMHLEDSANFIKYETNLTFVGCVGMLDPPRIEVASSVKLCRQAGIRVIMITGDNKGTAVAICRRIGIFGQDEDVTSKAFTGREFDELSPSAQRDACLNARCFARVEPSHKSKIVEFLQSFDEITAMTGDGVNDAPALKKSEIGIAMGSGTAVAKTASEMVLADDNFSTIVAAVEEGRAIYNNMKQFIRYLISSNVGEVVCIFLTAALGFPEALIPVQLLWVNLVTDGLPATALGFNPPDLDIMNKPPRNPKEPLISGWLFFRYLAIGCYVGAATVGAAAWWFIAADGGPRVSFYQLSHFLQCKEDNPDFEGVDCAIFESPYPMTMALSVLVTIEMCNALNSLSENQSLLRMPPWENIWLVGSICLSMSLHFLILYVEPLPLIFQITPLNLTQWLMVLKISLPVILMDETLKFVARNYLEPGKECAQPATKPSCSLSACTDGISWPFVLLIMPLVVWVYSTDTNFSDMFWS

B1: phospholamban (PLN), endogenous in rat VSMCs (natural protein, rat (endogenous in rat aortic VSMCs), UniProt P61016 1-52, looked up)
chain: MEKVQYLTRSAIRRASTIEMPQQARQNLQNLFINFCLILICLLLICIIVMLL
  Ca2+-dependent SERCA activity in VSMC lysate (enzyme-coupled spectrophotometric assay), FIR irradiation for 30 min against the RT control: 4.5 fold
